Measurements from article PMC3500269.

B1: PMO-01867 (enzyme)
chain: HAIFQQLWVDGVDYGSTCNRLPTSNSPVTNVGSRDVVCNAGTRGVSGKCPVKAGGTVTVEMHQQPGDRSCKSEAIGGAHWGPVQIYLSKVSDASTADGSSGGWFKIFSDAWSKKSGGRVGDDDNWGTRDLNACCGRMDVLIPKDLPSGDYLLRAEALALHTAGQSGGAQFYISCYQITVSGGGSANYATVKFPGAYRASDPGIQINIHAVVSNYVAPGPAVVAGGVTKQAGSGCIGCESTCKVGSSPSAVAPGGKPASGGSDGNAPEVAEPSGGEGSPSAPGACEVAAYGQCGGDQYSGCTQCASGYTCKAVSPPYYSQCAPTS
B2: PMO-02916 (enzyme)
chain: HTIFQKVSVNGADQGQLKGIRAPANNNPVTDVMSSDIICNAVTMKDSNVLTVPAGAKVGHFWGHEIGGAAGPNDADNPIAASHKGPIMVYLAKVDNAATTGTSGLKWFKVAEAGLSNGKWAVDDLIANNGWSYFDMPTCIAPGQYLMRAELIALHNAGSQAGAQFYIGCAQINVTGGGSASPSNTVSFPGAYSASDPGILINIYGGSGKTDNGGKPYQIPGPALFTCPAGGSGGSSPAPATTASTPKPTSASAPKPVSTTASTPKPTNGSGSGTGAAHSTKCGGSKPAATTKASNPQPTNGGNSAVRAAALYGQCGGKGWTGPTSCASGTCKFSNDWYSQCLP
B3: PMO-03328 (enzyme)
chain: HYTFPKVWANSGTTADWQYVRRADNWQNNGFVDNVNSQQIRCFQSTHSPAQSTLSVAAGTTITYGAAPSVYHPGPMQFYLARVPDGQDINSWTGEGAVWFKIYHEQPTFGSQLTWSSNGKSSFPVKIPSCIKSGSYLLRAEHIGLHVAQSSGAAQFYISCAQLSITGGGSTEPGANYKVSFPGAYKASDPGILININYPVPTSYKNPGPSVFTC
B4: PMO-08760 (enzyme)
chain: HATFQALWVDGADYGSQCARVPPSNSPVTDVTSNAMRCNTGTSPVAKKCPVKAGSTVTVEMHQQANDRSCSSEAIGGAHYGPVLVYMSKVSDAASADGSSGWFKIFEDTWAKKPSSSSGDDDFWGVKDLNSCCGKMQVKIPSDIPAGDYLLRAEVIALHTAASAGGAQLYMTCYQISVTGGGSATPATVSFPGAYKSSDPGILVDIHSAMSTYVAPGPAVYSGGSSKKAGSGCVGCESTCKVGSGPTGTASAVPVASTSAAAGGGGGGGSGGCSVAKYQQCGGTGYTGCTSCASGSTCSAVSPPYYSQCV

The binders below were run against cellobiose dehydrogenase IIA from N. crassa (N. crassa).
A Specific activity of H2O2 production (Amplex Red/horseradish peroxidase assay) with CDH IIA (0.3 uM, 500 uM cellobiose) as reductant of 1.07 U g^-1 was found for B1 in this work.
A Specific activity of H2O2 production (Amplex Red/horseradish peroxidase assay) with CDH IIA (0.3 uM, 500 uM cellobiose) as reductant of 1.82 U g^-1 was found for B2 in this work.
A Specific activity of H2O2 production (Amplex Red/horseradish peroxidase assay) with CDH IIA (0.3 uM, 500 uM cellobiose) as reductant of 15.5 U g^-1 was found for B3 in this work.
A Specific activity of H2O2 production (Amplex Red/horseradish peroxidase assay) with CDH IIA (0.3 uM, 500 uM cellobiose) as reductant of 1.53 U g^-1 was found for B4 in this work.
